Test results as given in the supplement of paper PMC9170038.

System: MS2 coat protein
Assay: apparent KD of MS2 coat protein; designed switch direction (-1 OFF switch, 1 ON switch): 1; higher = weaker reporter binding
How it was run: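 The reported apparent KD is a per-design median over clusters, from curve fits of normalised cluster fluorescence. Protein titrations used SNAP-549-labelled MS2 coat protein, doubled from 0.7 or 1.5 nM to 3 µM, in Tris-HCl pH 7.5 buffer with KCl, MgCl2, BSA, DTT, tRNA and Tween-20, with no input, 200 uM small-molecule ligand, or an oligonucleotide input. The RNA switches were transcribed on Illumina chips by stalled E. coli RNA polymerase.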

[1] = input ligand: microRNA oligo, concentration not stated
[2] = Eterna round: R95, input ligand: FMN 200 uM
[3] = Eterna round: R95, input ligand: microRNA oligo, concentration not stated
[4] = Eterna round: R95, input ligand: none

Sequence	apparent KD of MS2 coat protein (input ligand: FMN 200 uM)	apparent KD of MS2 coat protein [1]	apparent KD of MS2 coat protein (input ligand: none)	apparent KD of MS2 coat protein [2]	apparent KD of MS2 coat protein [3]	apparent KD of MS2 coat protein [4]
GGUGGGUUGCUGCCGGCACAUGAGGAUCACCCAUGUUUUGGGAAGGAUAUGGUACCUCUUUGGUGCCAGAAGGUCCCGUUGGUG [salish99_SSNG3_r04_713] (Eterna round: R96, puzzle: Same State NG 3)	2020 nM	503 nM	1740 nM			
GGGCCAGCUUUUGCUGGGCCUUCGCUUGCACAUGAGGAUCACCCAUGUCGUGUACACGCUUCCUGCCCGUCUUUUUU [Photon Torp-18] (puzzle: Sensor for hsa-mir-208a)				21.2 nM	13.6 nM	21.8 nM
GGAGGAUGAGCGUAGGAUAUAGGAGGAGUGACAUGAGGAUCACCCAUGUGGUAGGAGGGAGGGUACUAGAAGGACGAGGAAGAGG [JR_SS2_Sub070] (puzzle: Same State 2)				54.6 nM	64.5 nM	74.5 nM
GACAGGCAGGCUUUUUCCUCGUAGUGUAAACAUGAGGAUCACCCAUGUGCUCGCCCUGGAUCUUUGGAUCGCAGGAA [Tibeon] (puzzle: Sensor for hsa-mir-208a)				353 nM	124 nM	407 nM
GACAAUCUAUCUGAGGAUAUCAUGAAUAAAACAUGAGGAUCACCCAUGUGCAGGAGAACUGCAAAUGAGAAGGCAGAUAGAUUGG [Mat - Same State 2 - Mod - D10] (puzzle: Same State 2)				10 nM	37.2 nM	26.9 nM
GGACGUCAUCUCACUGAUUAAACAUGAGGAUCACCCAUGUCACAGGAUAUGAGUCCGAUUAGGACUCAGAAGGGUGUGACGUCC [Fiskers NG3ss - 45] (Eterna round: R96, puzzle: Same State NG 3)	20.7 nM	14.6 nM	22.9 nM			
UAAAAACAUGAGGAUCACCCAUGUCAAAAGACAUGAGGAUAUGUACAGACUUCGGUCUGUACAGAAGGCAUGAAAA [salish99_ss1_r3_094] (puzzle: Same State 1)				33.3 nM	503 nM	362 nM
UCUUGGUUUUUGCUCGUUUUUUGUGUUGAACAUGAGGAUCACCCAUGUAUUGUACGGUCCGGUUUGAUAGUGGUCCG [JMF 15] (puzzle: Sensor for hsa-mir-208a)				26.3 nM	16.2 nM	31.3 nM
CCCAUGAAUAGUCAGGAUAUACGAUUUUAUACAUGAGGAUCACCCAUGUUAAGACUCCUCAAUAAGUAGAAGGGACUAUUUAUAA [Tesla Same State 2] (puzzle: Same State 2)				154 nM	144 nM	103 nM
GAGUGGCGAUUAGGAUAUACAGUGAUAAUGAUAGUAGAAGGAAUUGACAUGAGGAUCACCCAUGUAGGACUAAUCCAGAGAGAG [Parity 30 - Jieux - Same State NG 1] (Eterna round: R96, puzzle: Same State NG 1)		57 nM				
UAUUAGAUCCGAGGAUAUCCUUUUUUCUUACAUGAGGAUCACCCAUGUAAAGGGAUUGAGUUGUAGGAGAAGGCGGAUUUAGUU [JR_SSNG2_Sub058] (Eterna round: R96, puzzle: Same State NG 2)		24.1 nM				
GUUACAUGAGGAUCACCCAUGUAUGUGUGGGAGUAAGUGUCUUAGGAUAUCUAUGAUUUAAAUUAAGAGAAGGAAGAUUGUUGU [JMF's solution 11] (Eterna round: R96, puzzle: Same State NG 3)		84.2 nM				
UGUUGUUAAUUAGGAUAUGGUCACAUGAGGAUCACCCAUGUAAUGUCGAUGCUAUGUGGAUCCGAUCAGAAGGAAUGGCUAACA [SameState NG2 #95] (Eterna round: R96, puzzle: Same State NG 2)	201 nM	121 nM	204 nM			
CUAACAACAGGUUGCAGUGCUCGUCUCUAACAUGAGGAUCACCCAUGUAAUAGCCCGGUGGAAGCGCUCGGGUCACC [Tearor] (puzzle: Sensor for hsa-mir-208a)				28.3 nM	34.5 nM	30.9 nM
CCGUAGAUGGAAGGAUAUGGAGCCUUAUUGGCUCCAGAAGGUUCAAAACAUGAGGAUCACCCAUGUACGGCGGUCAAUAGACCG [Eli NG1ss - 82] (Eterna round: R96, puzzle: Same State NG 1)	111 nM	226 nM	245 nM			
GAGGGACGGACGAACAUGAGGAUCACCCAUGUCCUCGGAGGUCAGGAUAUCCGGAGGUAGCCGAAGGAGAAGGGACGGUGAACC [AK SSNG3-V2-31.1] (Eterna round: R96, puzzle: Same State NG 3)	104 nM	51.5 nM	85.7 nM			

Sequence	apparent KD of MS2 coat protein (input ligand: FMN 200 uM)	apparent KD of MS2 coat protein [1]	apparent KD of MS2 coat protein (input ligand: none)	apparent KD of MS2 coat protein [2]	apparent KD of MS2 coat protein [3]	apparent KD of MS2 coat protein [4]
GCCGCGUUUCGCGCCUACAUGAGGAUCACCCAUGUUUGUAGGCAGGAUAUCGUCCGCUCUGCGGGCGAGAAGGGCUGUUGUGGU [salish99_SSNG3_R04_024] (Eterna round: R96, puzzle: Same State NG 3)	65.6 nM	58.1 nM	86.7 nM			
GCGGUCUGACAUGAGGAUCACCCAUGUGGAAUAAAUACGGGUUAGGAUAUCUUGAGGAUCACCCAAGAGAAGGGAUGGACCGCU (Eterna round: R96, puzzle: Same State NG 3)	32.1 nM	22.8 nM	38.4 nM			
AUUACUAACAUAGGAUAUCAUGCGAAAAUUGCGUGAGAAGGGUGGACACUGUCUUUCUCGGAGUACAUGAGGAUCACCCAUGUG [SameState NG1 #68] (Eterna round: R96, puzzle: Same State NG 1)	564 nM	138 nM	147 nM			
UAUCUCAUGUAAGGAUAUGCAGCCGUUUCGGCUGCAGAAGGUACUAUAAUACAUGAGGAUCACCCAUGUCUCUCGCAUUGCGAG [JL SSNG1 1.49] (Eterna round: R96, puzzle: Same State NG 1)	186 nM	150 nM	293 nM			
CUAAAAGGAUGAGGAUAUGCAGAGGAUCACCCUGUAGAAGGCAACAGAUGAGGAUAUGCAGAGGAUCACCCUGUAGAAGGCAAC [pwkr ssNG DX.2] (Eterna round: R96, puzzle: Same State NG 1)	233 nM	56.8 nM	94.1 nM			
GUAGCAUACCGAGGAUAUUCAUUACAUGAGGAUCACCCAUGUUUAAAUAAUAGGCGAAAGCCUUGGGAGAAGGCGGAAUGCUAC [Xeonanis - 20 Mod71] (Eterna round: R96, puzzle: Same State NG 2)	10.9 nM	10.1 nM	14 nM			
CGUCGUUUGUUAGGAUAUCGCUAUACAUGAGGAUCACCCAUGUUUACCACGCUGGUUUUUCAUACCGAGAAGGAUUCUGAUGUU [salish99_SSNG02_r04_019] (Eterna round: R96, puzzle: Same State NG 2)	42.5 nM	31.6 nM	37.8 nM			
GGAGCCGGCACUGAGGAUAUUCGUAUUAAAACAUGAGGAUCACCCAUGUAGGCCAGAAGGCCUUGGGAGAAGGCAGGUCGGCCCG [Bibimoar - 5] (puzzle: Same State 2)				12.5 nM	33.9 nM	46.4 nM
CCACUCUGCGGAGGAUAUGGGCCUGCCCGGGAUAACGGGCCUAAUACAUGAGGAUCACCCAUGUCCCAGAAGGCCGCUAGAGCC [Xeusza] (Eterna round: R96, puzzle: Same State NG 2)	18.8 nM	92.4 nM	139 nM			
ACAUGAAAUUGAGGAUAUUUUGUACCUACAUGUGACAUGAGGAUCACCCAUGUGGUAAGUAUAAGAAAGAAGGCAAAGAUAUGU [Equivalence 7 - Jieux - Same State NG 2] (Eterna round: R96, puzzle: Same State NG 2)	25.6 nM	30.8 nM	64.9 nM			
GCGAGCGUACUUGCUACAUGAGGAUCACCCAUGUUCAUUGGACAGGAUAUGGUACCGUUUCGGUACCAGAAGGGUUCAUCAUGU [JL SSNG3 3.73] (Eterna round: R96, puzzle: Same State NG 3)	1190 nM	26.6 nM	585 nM			
AAGUGAUGGGUUAGUAACUGCUAGUAAGGACAUGAGGAUCACCCAUGUGAGUAACGAGCUUUUGCUCGUCUUAUAAA [JR_SHM208A_Sub020] (puzzle: Sensor for hsa-mir-208a)				89.7 nM	48.9 nM	110 nM
AGUCCUGAAAAGAAAAUACAGAGACAUGUACAUGAGGAUCACCCAUGUCAUGUACAAGUUCUAUGCUCGUCAUAUAA [Sensorship 20 - Jieux - Sensor for hsa-mir-208a] (puzzle: Sensor for hsa-mir-208a)				22.4 nM	15.8 nM	21 nM
GAGAGACGAUUAGGAUAUACGGUGAUAAUGAUAGUAGAAGGAAUUGACAUGAGGAUCACCCAUGUAGGAAUAAUCCAGAGAGAG [Parity 26 - Jieux - Same State NG 1] (Eterna round: R96, puzzle: Same State NG 1)	81.2 nM	93.2 nM	86.8 nM			
AGAGGAGGAGCAGGAUAUUCGAAGGAGGACGUGGAAGAAGGGUUCAUGCGAUGACAUGAGGAUCACCCAUGUACCGCGCGUCGA [AK SSNG1-V2-15] (Eterna round: R96, puzzle: Same State NG 1)	381 nM	126 nM	484 nM			
